Each block holds one binder with its values, some of them ahead of it.
How the values were obtained:
Experiment in all cases: method not stated in Example 7
[1] = molecular target: C345C subunit of complement protein C5
[2] = molecular target: IL-17A
[3] = molecular target: β-NGF
Chain of β-NGF (P01138 122-241): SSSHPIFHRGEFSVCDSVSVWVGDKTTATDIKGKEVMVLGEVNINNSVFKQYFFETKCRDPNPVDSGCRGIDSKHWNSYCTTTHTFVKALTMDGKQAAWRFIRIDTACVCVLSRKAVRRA

Chain of IL-17A (Q16552 24-155): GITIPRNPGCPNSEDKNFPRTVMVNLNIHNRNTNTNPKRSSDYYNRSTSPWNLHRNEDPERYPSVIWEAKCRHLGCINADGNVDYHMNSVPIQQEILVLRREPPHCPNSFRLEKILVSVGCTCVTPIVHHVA
Chain of C345C subunit of complement protein C5 (P01031 1532-1676): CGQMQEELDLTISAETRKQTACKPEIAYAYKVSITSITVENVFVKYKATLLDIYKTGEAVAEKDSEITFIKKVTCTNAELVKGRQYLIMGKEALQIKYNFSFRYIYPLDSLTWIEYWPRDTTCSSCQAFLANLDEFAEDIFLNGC

Kd [1]: 5 nM
B1: APE1775 (antibody, human IgG1, kappa, V domains shown)
VH: EVQLVESGGGLVQPGGSLILSCAASGFTFSSYAMTWVRQAPGKGLEWVCAISGSGSTYYADSVKGRFTCSRDNSKNTLYLQMNSLRAEDTAVYYCARRGLRYNYFDYWGAGTTVTVSS
VL: DVVLTQSPLSLAVLLGQPASISCRASQSVSSSYLAWYQQRPGQSPRLLIYGASSRATGVPDRFSGSGSGTDFTLKISRVEAEDVGVYFCQQYGRSLEYTFGGGTKLEIKR

Kd [2]: 0.21 nM
fold improvement in antigen binding affinity (against the parental antibody, APE508 in Table 3) [2]: 1.6 fold
B2: APE1662 (antibody, human IgG1, kappa, V domains shown)
VH: EVQLVESGGGLVQPGGSLILSCAASGFTFSNHWMNWVRQAPGKGLEWVCAAINEDGSEKYYVGSVKVRFTCSRDNSKNTLYLQMNSLRAEDTAVYYCARDYYDILTDYYIHYWYFDLWGAGTTVTVSS
VL: DVVLTQSPLSLAVLLGQPASISCRASQSVSSSYLAWYQQRPGQSPRLLIYGASSRATGVPDRFSGSGSGTDFTLKISRVEAEDVGVYFCQQYGSSPLTFGGGTKLEIKR

Kd [3]: 12 nM
fold loss in β-NGF binding affinity (against the parental antibody, APE579 in Table 3) [3]: 2 fold
B3: APE1661 (antibody, human IgG1, kappa, V domains shown)
VH: EVQLVESGGGLVQPGGSLILSCAASGFTFTTYNMNWVRQAPGKGLEWVCVISTGGSNTYYADSVKGRFTCSRDNSKNTLYLQMNSLRAEDTAVYYCARDGGYSSSTLYAMDAWGAGTTVTVSS
VL: DVVLTQSPLSLAVLLGQPASISCRASKNIYNALAWYQQRPGQSPRLLIYNTDRLHTGVPDRFSGSGSGTDFTLKISRVEAEDVGVYFCQHYFDYPRTFGGGTKLEIKR
